Patent publication WO2017222556A2 (dated 2017)
Positions count from the first letter of the chain named. Blank lines part the entries; values can stand above or below the binder they belong to.

Columns and labels:
biotinylated human NKG2D [1] = biological target: T1, biotinylated human NKG2D (human, UniProt P26718 78-216); test: biolayer interferometry (Octet), surface coated biotinylated human NKG2D, 100 nM protein
T1 construct: also called surface coated biotinylated human NKG2D; recombinant biotinylated NKG2D
T1 sequence (looked up): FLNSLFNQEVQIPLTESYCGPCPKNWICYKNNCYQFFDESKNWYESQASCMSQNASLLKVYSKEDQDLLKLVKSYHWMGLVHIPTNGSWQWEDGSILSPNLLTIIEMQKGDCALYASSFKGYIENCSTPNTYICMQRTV

human NKG2D-Fc [2] = biological target: T2, human NKG2D-Fc (human, UniProt P26718 78-216); test: competition ELISA: inhibition of 2 nM human NKG2D-Fc binding to plate-coated WT sMICA
T2 construct: also called human NKG2D-Fc reagent; not shown: Fc part, not described
T2 sequence (looked up): T1 sequence (looked up)

NKG2D on NKL cells = biological target: T3, NKG2D on NKL cells (human, UniProt P26718 1-216); test: cell-based or functional assay
T3 sequence (looked up): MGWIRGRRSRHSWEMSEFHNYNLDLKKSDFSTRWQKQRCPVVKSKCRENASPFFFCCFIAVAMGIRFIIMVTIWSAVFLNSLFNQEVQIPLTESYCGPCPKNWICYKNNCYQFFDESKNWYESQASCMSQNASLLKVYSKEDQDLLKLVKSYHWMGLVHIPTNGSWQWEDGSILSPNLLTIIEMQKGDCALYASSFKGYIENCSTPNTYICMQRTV

mouse NKG2D-Fc = biological target: T4, mouse NKG2D-Fc (mouse, UniProt O54709 94-232); test: competition ELISA: inhibition of mouse NKG2D-Fc binding to plate-coated MICA
T4 construct: also called murine NKG2D-Fc; murine NKG2D; not shown: Fc part, not described
T4 sequence (looked up): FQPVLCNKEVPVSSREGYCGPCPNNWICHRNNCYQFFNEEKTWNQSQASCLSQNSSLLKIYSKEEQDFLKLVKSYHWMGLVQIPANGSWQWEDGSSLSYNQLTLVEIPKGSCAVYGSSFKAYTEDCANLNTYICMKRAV

biotinylated human NKG2D [3] = biological target: T1, biotinylated human NKG2D; test: biolayer interferometry (Octet), surface-coated biotinylated human NKG2D, titration 1-100 nM
biotinylated human NKG2D [4] = biological target: T1, biotinylated human NKG2D; test: biolayer interferometry (Octet), surface-coated biotinylated human NKG2D
human NKG2D-Fc [5] = biological target: T2, human NKG2D-Fc; test: competition ELISA: inhibition of human NKG2D-Fc binding to plate-coated WT sMICA

B1: al-a2 variant 16 (ligand)
chain: EPHSLRYNLTVLSWDGSVQSGFLTEVHLDGQPFLRCDRQKCRAKPQGQWAEDVLGNKTWDRETRDLTGWGKDLRMTLAHIKDQKEGLHSLQEIRVCEIHEDNSTRSSQHFYYDGELFLSQNLETLEWTMPQSSRAQTLAMNVRNFLKEDAMETDTHYHAMRADCLQELRRYLKSGVVLRRTVPPMVQVTRSEASGGSGDRVTITCRASQDVSTAVAWYQQKPGKAPKLLIYSASFLYSGVPSRFSGSGSGTDFTLTISSLQPEDFATYYCQQSYTTPPTFGQGTKVEIKGGSSRSSSSGGGGSGGGGEVQLVESGGGLVQPGGSLRLSCAASGFTFTSTGISWVRQAPGKGLEWVGRIYPTNGSTNYADSVKGRFTISADTSKNTAYLQMNSLRAEDTAVYYCARTYGIYDLYVDYTEYVMDYWGQGTLVTVSSGGSSRSSSSGGGGSGGGGDIQMTQSPSSLSASGGSGQITVTCRASGFYPWNITLSWRQDGVSLSHDTQQWGDVLPDGQGTYQTWVATRISQGEEQRFTCYMEHSGQHSTHPVPSGKGSHHHHHH
fold affinity increase relative to WT al -a2 (biotinylated human NKG2D [1]): 30 fold | fold reduction in the off-rate relative to WT (biotinylated human NKG2D [1]): 18 fold | IC50 (human NKG2D-Fc [2]): 700 pM | fold better binding to NKG2D than WT NKG2DL (human NKG2D-Fc [2]): 27 fold | killing of FGFR3-expressing P815 cells by NKL cells, calcein-release assay, fold against WT at 0.78 nM (NKG2D on NKL cells): ~15 fold | binding result (mouse NKG2D-Fc): binds

B2: al-a2 variant 25 (ligand)
chain: B1 chain with Q166S
Kd (biotinylated human NKG2D [3]): 62 pM | fold enhancement in equilibrium binding affinity against variant 16 (biotinylated human NKG2D [4]): 8 fold | EC50 for cell killing, fold improvement against variant 16 (NKG2D on NKL cells): ~5 fold | killing of FGFR3-expressing P815 cells by NKL cells, calcein-release assay, fold against variant 16 at 0.2 nM (NKG2D on NKL cells): ~3 fold

B7: al-a2 variant 15 (ligand)
chain: B1 chain with L125N
IC50 (human NKG2D-Fc [2]): 1700 pM | fold better binding to NKG2D than WT NKG2DL (human NKG2D-Fc [2]): 11 fold | binding result (mouse NKG2D-Fc): binds

Continued, in another order:

fold reduction in NKG2D binding affinity (biotinylated human NKG2D [3]): 250 fold
B3: al-a2 variant 48 (ligand)
chain: B1 chain with E152A, H158I, Q166A

binding result (human NKG2D-Fc [5]): binds | binding result (mouse NKG2D-Fc): binds
B4: WED-MICA (ligand)
chain: B1 chain with L125K, R161H
notes: also called WED- al-cc2 domains; WED soluble MICA

fold affinity increase relative to WT al -a2 (biotinylated human NKG2D [1]): 30 fold | fold reduction in the off-rate relative to WT (biotinylated human NKG2D [1]): 18 fold | IC50 (human NKG2D-Fc [2]): 600 pM | fold better binding to NKG2D than WT NKG2DL (human NKG2D-Fc [2]): 32 fold
B5: al-a2 variant 17 (ligand)
chain: B1 chain with G68L
killing of FGFR3-expressing P815 cells by NKL cells, calcein-release assay, fold against WT at 0.78 nM (NKG2D on NKL cells): ~15 fold

fold affinity increase relative to WT al -a2 (biotinylated human NKG2D [1]): 30 fold | fold reduction in the off-rate relative to WT (biotinylated human NKG2D [1]): 18 fold | IC50 (human NKG2D-Fc [2]): 500 pM | fold better binding to NKG2D than WT NKG2DL (human NKG2D-Fc [2]): 38 fold
B6: al-a2 variant 18 (ligand)
chain: B1 chain with S20P, G68L
killing of FGFR3-expressing P815 cells by NKL cells, calcein-release assay, fold against WT at 0.78 nM (NKG2D on NKL cells): ~15 fold
